This is an account of results in patent US20250263490A1 (VIB VZW, published 2025).

The target in test [1] is T1, mouse cation-independent mannose-6-phosphate receptor on cells (mouse, UniProt Q07113 36-2483).
T1 construct: whole, on cells; also called mouse CI-M6PR of bEND3 cells; mCI-M6PR
As to the kind of experiment: flow cytometry on fixed/permeabilised mouse bEND3 cells (sheet: Binding FACS in bEND3 (Fixed/Permeabilized); legend: internalisation detected upon permeabilisation) [upper graph]. The text has this:
(§1) Synthetic DNA fragments encoding VHHs were ordered (IDT, Leuven, Belgium) and subcloned into an E. coli expression vector under control of an IPTG-inducible lac promoter, in frame with N-terminal PelB signal peptide (which directs the recombinant proteins to the periplasmic compartment) and C-terminal FLAG3 and His6 tags. […] VHH proteins were purified from these clones by means of IMAC chromatography followed by desalting according to well established procedures¹⁰⁶. Cells used herein were recovered using cell dissociation non-enzymatic solution (Sigma Aldrich, cat. #C5914-100ML) and resuspended to a final concentration of 1,000,000 cells/mL in FACS buffer. Cells were incubated with different concentrations of purified FLAG3-tagged VHHs for 30 minutes on ice with shaking, followed by washing and incubation with mouse M2 anti-Flag mAb (Sigma Aldrich, cat. #F-1804) in FACS buffer for 30 min on ice with shaking, followed again by washing. […] Flow cytometry and analysis were done on an Attune NxT Flow Cytometer (Thermo Fisher Scientific).
(In general: A flow cytometer gives signals particle by particle.)

Test [2] has as its target T2, recombinant human domain 1-3His6 of the cation-independent mannose-6-phosphate receptor (human, UniProt P11717 41-467).
T2 construct: Biotinylated (NHS-PEG4-biotin) for BLI; Glycosylated; also called hDom1-3His6; hCI-M6PRD1-D3
Put plainly: BLI, dissoc pH 6.5, mean of local fits. The method, then:
(§2) FIGS. 58 & 59. […] BLI was performed on an Octet Red96 (FortéBio) instrument in kinetics buffer (0.2 M Na₂HPO₄, 0.1 M Na⁺ citrate, 0.01% bovine serum albumin, 0.002% Tween-20). Biotinylated human domain₁₋₃His₆ was immobilized on Streptavidin SA biosensors (Sartorius) to a signal of 0.6 nm. […] Between assays, biosensors were regenerated by three times 10 s exposure to regeneration buffer (10 mM glycine pH 3). The degree of association and dissociation was measured in δ nm over time (s).
(§3) After loading, the tips were incubated with VHHs serially diluted in pH 7.4 kinetic buffer during the association phase and dissociation was performed at pH 7.4, pH 6.5, pH 6.0, pH 5.5 and pH 5.0. All biosensor tips were then regenerated before analysis of the subsequent VHH. Table 13 summarizes the kinetic parameters retrieved after processing and curve fitting of the BLI measurements. When both association and dissociation were performed at pH 7.4, a global fit was performed according to the 1:1 binding model of which the resulting affinity constants (KD), association (kₒₙ) and dissociation rate constants (koff) are shown. For measurements with association at pH 7.4 and dissociation at pH 6.5, 6.0, 5.5 and 5.0, the depicted dissociation rate constants are an average of the parameters determined by local curve fitting of the dissociation of 200, 100 and 50 nM VHH.
In general terms: Biolayer interferometry detects binding as a change in optical thickness at a sensor tip.

The target in test [3] is T2, recombinant human domain 1-3His6 of the …. Put plainly: BLI, dissoc pH 6, mean of local fits. The method, then: as §2, §3
Test [4] has the same target. Put plainly: BLI, dissoc pH 5.5, mean of local fits. As to the method: as §2, §3
Test [5] has the same target. As to the kind of experiment: BLI, global 1:1 fit, pH 7.4. As to the method: as §2, §3
Test [6] addresses T3, human cation-independent mannose-6-phosphate receptor, native, on cells (human, UniProt P11717 41-2491).
T3 construct: whole, on cells; also called native CI-M6PR; cell-surface hCI-M6PR
As to the kind of experiment: flow cytometry on HepG2 cells: FLAG3-tagged VHH 30 min on ice, M2 anti-Flag mAb, PE anti-mouse F(ab')2 [upper graph].
Text: as §1
Moreover, cross-reactivity to mouse CI-M6PR was analyzed, in view of the amino acid homology between mouse and human being overall about 80% identity, but for domain 1-3 of CI-M6PR just about 75% identity.

In test [7] the target is T2, recombinant human domain 1-3His6 of the …. Put plainly: BLI at pH 7.4, 1st of 2 repeats; BLI, biotinylated hDom1-3His6 on streptavidin tips, pH 7.4, experiment 1. As to the method: For each of the 11 anti-CI-M6PR VHHs, a biolayer interferometry (BLI) experiment was performed in which the hDom₁₋₃His₆ was biotinylated and coupled to streptavidin biosensor tips. Afterwards, the tips were incubated with serially diluted VHHs during the association phase and dissociation was performed at pH 7.4. Similarly, dissociation was performed at pH 7.0, pH 6.0 and pH 5.0 as well after regeneration of the biosensor tips. […] The anti-CI-M6PR antibody (clone 2G11) and GBP were used as positive and negative controls, respectively.
Analysis of the binding kinetics was performed using an Octet Red96 (FortéBio) device with Streptavidin SA Biosensor tips (VWR 733-2145). Therefore, 1 mL of human domain₁₋₃His₆ (0.5 mg/mL in 50 mM MES, 150 mM NaCl, pH 6.5) was incubated at room temperature for 30 minutes with EZ-Link™ NHS-PEG4-Biotin (1 mg) (Thermo Fischer A39259) and NaHCO₃ (100 mM). Biotinylated human domain₁₋₃His₆ was purified using a Zeba spin desalting Column™ (7K MWCO, 2 mL, Thermo Fischer 89890) and 1 μg/mL was used for immobilization on the Streptavidin SA Biosensor tips. The loaded tips were dipped into a particular anti-CI-M6PR VHH solution, serially diluted in kinetics buffer (0.2M NaH₂PO₄, 0.1M Na⁺ citrate, 0.01% BSA, 0.002% Tween20, pH 7.4). This was followed by dissociation of the particular anti-CI-M6PR VHH in kinetics buffer of pH 7.4, followed by regeneration in Glycine (10 mM, pH 3) and neutralisation. Same cycle was repeated but the dissociation was performed at pH 7.0, 6.0, 5.0, 4.5 and 4.0. A reference well and reference sensors were subtracted from ligand sensors afterwards and Savitsky-Golay filtering was applied on the data. Fitting of the data was performed using a 1:1 model, grouped per pH of dissociation.

For test [8] the target is unchanged. As to the kind of experiment: BLI exp 2, dissoc pH not printed (between 7 and 6, presumably 6.5).

T1 sequence (Q07113 36-2483): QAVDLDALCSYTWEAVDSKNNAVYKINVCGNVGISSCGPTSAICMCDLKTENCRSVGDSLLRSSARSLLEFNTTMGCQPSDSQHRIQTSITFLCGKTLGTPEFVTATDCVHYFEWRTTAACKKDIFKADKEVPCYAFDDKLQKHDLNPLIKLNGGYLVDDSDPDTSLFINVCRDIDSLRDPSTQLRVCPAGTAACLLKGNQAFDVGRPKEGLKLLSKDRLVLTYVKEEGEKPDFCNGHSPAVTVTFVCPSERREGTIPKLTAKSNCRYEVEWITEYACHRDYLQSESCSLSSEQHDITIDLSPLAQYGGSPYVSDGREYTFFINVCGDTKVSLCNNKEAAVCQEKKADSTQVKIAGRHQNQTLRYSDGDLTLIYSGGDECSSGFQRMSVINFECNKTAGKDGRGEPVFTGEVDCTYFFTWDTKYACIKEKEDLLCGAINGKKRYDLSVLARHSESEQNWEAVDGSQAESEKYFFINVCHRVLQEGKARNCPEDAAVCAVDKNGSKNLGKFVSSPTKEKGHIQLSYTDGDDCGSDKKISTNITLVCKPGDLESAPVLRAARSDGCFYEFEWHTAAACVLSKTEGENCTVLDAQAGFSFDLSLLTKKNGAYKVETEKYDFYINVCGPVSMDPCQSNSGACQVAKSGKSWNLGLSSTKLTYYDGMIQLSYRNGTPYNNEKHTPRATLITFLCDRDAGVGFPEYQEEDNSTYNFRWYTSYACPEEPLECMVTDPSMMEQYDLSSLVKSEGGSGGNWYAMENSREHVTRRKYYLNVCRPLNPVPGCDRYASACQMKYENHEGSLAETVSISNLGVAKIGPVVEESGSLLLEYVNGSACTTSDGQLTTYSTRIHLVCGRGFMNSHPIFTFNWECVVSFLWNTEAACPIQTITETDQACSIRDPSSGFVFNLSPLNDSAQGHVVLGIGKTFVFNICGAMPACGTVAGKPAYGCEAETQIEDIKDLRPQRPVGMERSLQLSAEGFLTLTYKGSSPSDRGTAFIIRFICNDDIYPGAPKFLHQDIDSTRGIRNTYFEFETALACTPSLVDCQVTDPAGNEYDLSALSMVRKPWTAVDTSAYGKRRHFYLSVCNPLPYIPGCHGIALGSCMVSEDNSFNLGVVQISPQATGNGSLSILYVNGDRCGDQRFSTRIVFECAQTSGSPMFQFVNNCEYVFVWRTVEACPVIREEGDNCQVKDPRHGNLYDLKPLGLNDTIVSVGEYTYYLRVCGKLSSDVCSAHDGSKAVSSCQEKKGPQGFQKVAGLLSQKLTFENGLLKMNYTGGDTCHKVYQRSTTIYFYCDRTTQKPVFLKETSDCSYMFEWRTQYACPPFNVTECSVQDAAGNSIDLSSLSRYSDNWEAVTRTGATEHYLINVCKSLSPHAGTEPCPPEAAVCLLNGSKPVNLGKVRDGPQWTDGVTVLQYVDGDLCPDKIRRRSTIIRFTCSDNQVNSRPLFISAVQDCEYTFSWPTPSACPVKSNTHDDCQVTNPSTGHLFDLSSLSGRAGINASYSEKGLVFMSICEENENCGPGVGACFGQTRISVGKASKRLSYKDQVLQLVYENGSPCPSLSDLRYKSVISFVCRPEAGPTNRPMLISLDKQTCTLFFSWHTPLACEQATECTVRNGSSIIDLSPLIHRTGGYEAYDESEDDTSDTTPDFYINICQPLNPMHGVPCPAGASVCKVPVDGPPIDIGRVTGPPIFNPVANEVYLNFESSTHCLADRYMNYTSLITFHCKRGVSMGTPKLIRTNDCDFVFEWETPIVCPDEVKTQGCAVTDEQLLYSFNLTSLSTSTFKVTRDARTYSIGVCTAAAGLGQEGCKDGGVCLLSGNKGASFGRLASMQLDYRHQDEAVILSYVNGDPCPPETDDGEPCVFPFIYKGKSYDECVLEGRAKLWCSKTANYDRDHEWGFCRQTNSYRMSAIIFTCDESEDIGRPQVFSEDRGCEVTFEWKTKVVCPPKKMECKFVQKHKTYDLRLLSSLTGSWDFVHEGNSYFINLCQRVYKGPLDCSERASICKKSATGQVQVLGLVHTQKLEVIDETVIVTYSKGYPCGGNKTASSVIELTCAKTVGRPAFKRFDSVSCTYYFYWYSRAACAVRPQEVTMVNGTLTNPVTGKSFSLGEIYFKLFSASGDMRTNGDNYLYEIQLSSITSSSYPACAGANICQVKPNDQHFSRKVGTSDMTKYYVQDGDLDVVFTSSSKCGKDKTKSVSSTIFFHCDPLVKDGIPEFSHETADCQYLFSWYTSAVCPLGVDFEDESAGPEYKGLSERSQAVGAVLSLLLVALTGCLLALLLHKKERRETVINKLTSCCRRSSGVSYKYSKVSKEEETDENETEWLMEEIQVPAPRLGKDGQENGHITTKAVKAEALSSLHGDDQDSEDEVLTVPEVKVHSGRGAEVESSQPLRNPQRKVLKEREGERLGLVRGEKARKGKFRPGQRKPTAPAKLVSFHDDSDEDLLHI

B1: anti-CI-M6PR VHH7 (VHH)
VHH: QVQLQESGGGLVQPGGSLRLSCAASGIIFSDNRMDWYRQAPGKQREWVATLASYGWKTYADSVKGRFTISRDNTKNTVYLRMNSLKPEDTAVYYCKASSPVLNDIWGQGTQVTVSS
notes: His6-tagged (Pichia pastoris)
As to B1, the “EC50 (read off the curve)” value in test [1] was ~50 nM.

B2: anti-CI-M6PR VHH 1H11 (VHH)
VHH: QVQLQESGGGLVQPGGSLRLSCAASGIIFSDNRMDWYRQAPGKQREWVATLASYGWKTYADSVKDRFTISRDNAKNTVNLYMNSLQPEDTAVYYCNSGQYWGQGTQVTVSS
notes: made in E. coli WK6, His-tag purified
With B2, the koff in test [2] came out at 0.0048 s⁻¹; in test [3] it was 0.0051 s⁻¹; in test [4], 0.0063 s⁻¹; in test [5], 0.0025 s⁻¹. The dissociation constant (Kd) in test [5] amounted to 4.9 nM. In addition, the kon in test [5] was 510000 M⁻¹ s⁻¹.

B3: anti-CI-M6PR VHH8 (VHH)
VHH: QVQLQESGGGLVQAGGSLRLSCEASGRTFNTYNWGWFRQAPGKEREFVAAIRWSSSKTSYADSVKGRFTISRDNAKNTIYLQMNSLKPEDTAVYYCAASIVDFTTNPSHFGSWGQGTQVTVSS
notes: His6-tagged (Pichia pastoris)
Regarding B3, in test [6], the “EC50 (read off the curve)” value was ~2 nM.

B4: anti-CI-M6PR VHH4 (VHH)
VHH: QVQLQESGGGLVQAGGSLRLSCAASGRTFSNYVMGWFRQAPGKEREFVGSISQGGKMTYYPDSVKGRFTISRDNAKNTMYLQMDGLKPEDTAVYYCAVSRGYPMVRVSEVDYWGQGTQVTVSS
notes: His6-tagged; made in Pichia pastoris
In the case of B4, in test [7], the Kd is 2.33 nM, the off-rate (koff) came out at 0.00133 s⁻¹ and the kon worked out at 571000 M⁻¹ s⁻¹.

B5: anti-CI-M6PR VHH5 (VHH)
VHH: QVQLQESGGGLVQAGGSLKLSCAAAGRTFSRLAMGWFRQAPGKEREFVAAISENGDSIHYSDSVKGRFAVSRDNAKNTVYLQMNSLKPEDTAIYYCAADRAAYYCSGSGCYPSRAPAAASYDYWGQGTQVTVSS
notes: His6-tagged; made in Pichia pastoris, later also in E. coli WK6
Consider B5, for which the koff in test [8] was found to be 0.00017 s⁻¹.

The term EC50 (read off the curve) denotes the concentration at which the effect is half-maximal. As a reminder, the koff is a measure of how fast the partners let go of each other. A word on the Kd: it is the equilibrium constant for the complex coming apart. One may read the kon as the rate constant with which the complex forms.
